Test results from patent US20220204580A1 (AstraZeneca / MedImmune, published 2022).
Numbered stars: 1 amine (or outer) side, 2 acyl side, 3 side chain; on linkers, the order of the positions; unused ones are H or OH. Bridge positions count the residues as written; N and C are the ends. Square brackets hold non-standard residues; d marks the D form. Side chains are listed from the residue outwards. Ends that are not written are not given here. * marks the point of attachment. C18 diacid = O=C(O)CCCCCCCCCCCCCCCCC(=O)*; γGlu = O=C(O)[C@H](CCC(=O)[*:2])N[*:1]; αMeF = C[C@](N)(Cc1ccccc1)C(=O)O; Dab = NCC[C@H](N)C(=O)O; Aib = CC(C)(N)C(=O)O

T1: human amylin receptor (calcitonin receptor co-expressed with receptor activity modifying protein, RAMP3) (human, UniProt P30988 25-474; O60896 24-148)
T1 sequence (looked up) 1: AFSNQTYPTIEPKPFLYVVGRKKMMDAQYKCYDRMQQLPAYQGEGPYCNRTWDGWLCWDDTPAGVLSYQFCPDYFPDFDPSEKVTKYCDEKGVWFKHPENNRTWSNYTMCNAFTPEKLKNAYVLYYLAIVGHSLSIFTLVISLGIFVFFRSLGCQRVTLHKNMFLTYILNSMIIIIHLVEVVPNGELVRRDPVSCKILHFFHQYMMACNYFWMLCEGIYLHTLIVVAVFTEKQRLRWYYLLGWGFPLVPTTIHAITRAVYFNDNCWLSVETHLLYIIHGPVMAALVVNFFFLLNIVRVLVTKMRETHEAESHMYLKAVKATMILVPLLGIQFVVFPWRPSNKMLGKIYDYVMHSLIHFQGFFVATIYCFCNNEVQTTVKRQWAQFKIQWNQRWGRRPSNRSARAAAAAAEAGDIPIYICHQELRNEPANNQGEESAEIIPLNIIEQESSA
T1 sequence (looked up) 2: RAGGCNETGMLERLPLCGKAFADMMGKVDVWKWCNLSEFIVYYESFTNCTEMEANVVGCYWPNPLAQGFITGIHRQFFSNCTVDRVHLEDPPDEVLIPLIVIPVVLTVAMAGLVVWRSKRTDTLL

T2: human calcitonin receptor (human, UniProt P30988 25-474)
T2 sequence (looked up): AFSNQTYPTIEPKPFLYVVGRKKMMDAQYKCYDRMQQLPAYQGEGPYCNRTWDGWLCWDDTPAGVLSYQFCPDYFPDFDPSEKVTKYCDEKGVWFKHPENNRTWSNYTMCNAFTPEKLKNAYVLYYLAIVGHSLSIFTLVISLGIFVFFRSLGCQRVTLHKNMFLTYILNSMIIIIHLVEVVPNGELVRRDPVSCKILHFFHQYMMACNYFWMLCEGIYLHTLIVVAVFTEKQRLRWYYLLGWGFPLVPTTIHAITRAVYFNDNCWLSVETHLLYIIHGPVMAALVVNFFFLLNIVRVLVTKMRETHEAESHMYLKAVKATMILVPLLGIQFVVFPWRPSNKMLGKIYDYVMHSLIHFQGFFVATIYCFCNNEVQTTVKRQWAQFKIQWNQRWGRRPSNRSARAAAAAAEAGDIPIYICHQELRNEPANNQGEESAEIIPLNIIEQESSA

B1: Peptide 16 (SEQ ID NO: 16) (peptide)
peptide: K([γGlu-C18 diacid])CNTATCATQRLANFLRHSSNN[αMeF]GPILPPTEVGSNTY-NH2
modifications: disulfide 2-7; N-terminus assumed
SMILES: CC[C@H](C)[C@H](NC(=O)[C@@H]1CCCN1C(=O)CNC(=O)[C@](C)(Cc1ccccc1)NC(=O)[C@H](CC(N)=O)NC(=O)[C@H](CC(N)=O)NC(=O)[C@H](CO)NC(=O)[C@H](CO)NC(=O)[C@H](Cc1c[nH]cn1)NC(=O)[C@H](CCCNC(=N)N)NC(=O)[C@H](CC(C)C)NC(=O)[C@H](Cc1ccccc1)NC(=O)[C@H](CC(N)=O)NC(=O)[C@H](C)NC(=O)[C@H](CC(C)C)NC(=O)[C@H](CCCNC(=N)N)NC(=O)[C@H](CCC(N)=O)NC(=O)[C@@H](NC(=O)[C@H](C)NC(=O)[C@@H]1CSSC[C@H](NC(=O)[C@@H](N)CCCCNC(=O)CC[C@H](NC(=O)CCCCCCCCCCCCCCCCC(=O)O)C(=O)O)C(=O)N[C@@H](CC(N)=O)C(=O)N[C@@H]([C@@H](C)O)C(=O)N[C@@H](C)C(=O)N[C@@H]([C@@H](C)O)C(=O)N1)[C@@H](C)O)C(=O)N[C@@H](CC(C)C)C(=O)N1CCC[C@H]1C(=O)N1CCC[C@H]1C(=O)N[C@H](C(=O)N[C@@H](CCC(=O)O)C(=O)N[C@H](C(=O)NCC(=O)N[C@@H](CO)C(=O)N[C@@H](CC(N)=O)C(=O)N[C@H](C(=O)N[C@@H](Cc1ccc(O)cc1)C(N)=O)[C@@H](C)O)C(C)C)[C@@H](C)O
B2: Peptide 148 (SEQ ID NO: 148) (peptide)
peptide: K([γGlu-C18 diacid])KCNTATCATQRLANFL[Aib]HSSNNFGPILPPTNVGPNTY-NH2
modifications: disulfide 3-8; N-terminus assumed
SMILES: CC[C@H](C)[C@H](NC(=O)[C@@H]1CCCN1C(=O)CNC(=O)[C@H](Cc1ccccc1)NC(=O)[C@H](CC(N)=O)NC(=O)[C@H](CC(N)=O)NC(=O)[C@H](CO)NC(=O)[C@H](CO)NC(=O)[C@H](Cc1c[nH]cn1)NC(=O)C(C)(C)NC(=O)[C@H](CC(C)C)NC(=O)[C@H](Cc1ccccc1)NC(=O)[C@H](CC(N)=O)NC(=O)[C@H](C)NC(=O)[C@H](CC(C)C)NC(=O)[C@H](CCCNC(=N)N)NC(=O)[C@H](CCC(N)=O)NC(=O)[C@@H](NC(=O)[C@H](C)NC(=O)[C@@H]1CSSC[C@H](NC(=O)[C@H](CCCCN)NC(=O)[C@@H](N)CCCCNC(=O)CC[C@H](NC(=O)CCCCCCCCCCCCCCCCC(=O)O)C(=O)O)C(=O)N[C@@H](CC(N)=O)C(=O)N[C@@H]([C@@H](C)O)C(=O)N[C@@H](C)C(=O)N[C@@H]([C@@H](C)O)C(=O)N1)[C@@H](C)O)C(=O)N[C@@H](CC(C)C)C(=O)N1CCC[C@H]1C(=O)N1CCC[C@H]1C(=O)N[C@H](C(=O)N[C@@H](CC(N)=O)C(=O)N[C@H](C(=O)NCC(=O)N1CCC[C@H]1C(=O)N[C@@H](CC(N)=O)C(=O)N[C@H](C(=O)N[C@@H](Cc1ccc(O)cc1)C(N)=O)[C@@H](C)O)C(C)C)[C@@H](C)O
B3: Peptide 150 (SEQ ID NO: 150) (peptide)
peptide: K([γGlu-C18 diacid])CNTATCATQRLANFL[Aib]HSS[Dab]NFGPILPPTNVGSNTY-NH2
modifications: disulfide 2-7; N-terminus assumed
SMILES: CC[C@H](C)[C@H](NC(=O)[C@@H]1CCCN1C(=O)CNC(=O)[C@H](Cc1ccccc1)NC(=O)[C@H](CC(N)=O)NC(=O)[C@H](CCN)NC(=O)[C@H](CO)NC(=O)[C@H](CO)NC(=O)[C@H](Cc1c[nH]cn1)NC(=O)C(C)(C)NC(=O)[C@H](CC(C)C)NC(=O)[C@H](Cc1ccccc1)NC(=O)[C@H](CC(N)=O)NC(=O)[C@H](C)NC(=O)[C@H](CC(C)C)NC(=O)[C@H](CCCNC(=N)N)NC(=O)[C@H](CCC(N)=O)NC(=O)[C@@H](NC(=O)[C@H](C)NC(=O)[C@@H]1CSSC[C@H](NC(=O)[C@@H](N)CCCCNC(=O)CC[C@H](NC(=O)CCCCCCCCCCCCCCCCC(=O)O)C(=O)O)C(=O)N[C@@H](CC(N)=O)C(=O)N[C@@H]([C@@H](C)O)C(=O)N[C@@H](C)C(=O)N[C@@H]([C@@H](C)O)C(=O)N1)[C@@H](C)O)C(=O)N[C@@H](CC(C)C)C(=O)N1CCC[C@H]1C(=O)N1CCC[C@H]1C(=O)N[C@H](C(=O)N[C@@H](CC(N)=O)C(=O)N[C@H](C(=O)NCC(=O)N[C@@H](CO)C(=O)N[C@@H](CC(N)=O)C(=O)N[C@H](C(=O)N[C@@H](Cc1ccc(O)cc1)C(N)=O)[C@@H](C)O)C(C)C)[C@@H](C)O
B4: Peptide 151 (SEQ ID NO: 151) (peptide)
peptide: K([γGlu-C18 diacid])CNTATCATQRLANFL[Aib]HSSNNFGPI[dL]PPTNVGSNTY-NH2
modifications: disulfide 2-7; N-terminus assumed
SMILES: CC[C@H](C)[C@H](NC(=O)[C@@H]1CCCN1C(=O)CNC(=O)[C@H](Cc1ccccc1)NC(=O)[C@H](CC(N)=O)NC(=O)[C@H](CC(N)=O)NC(=O)[C@H](CO)NC(=O)[C@H](CO)NC(=O)[C@H](Cc1c[nH]cn1)NC(=O)C(C)(C)NC(=O)[C@H](CC(C)C)NC(=O)[C@H](Cc1ccccc1)NC(=O)[C@H](CC(N)=O)NC(=O)[C@H](C)NC(=O)[C@H](CC(C)C)NC(=O)[C@H](CCCNC(=N)N)NC(=O)[C@H](CCC(N)=O)NC(=O)[C@@H](NC(=O)[C@H](C)NC(=O)[C@@H]1CSSC[C@H](NC(=O)[C@@H](N)CCCCNC(=O)CC[C@H](NC(=O)CCCCCCCCCCCCCCCCC(=O)O)C(=O)O)C(=O)N[C@@H](CC(N)=O)C(=O)N[C@@H]([C@@H](C)O)C(=O)N[C@@H](C)C(=O)N[C@@H]([C@@H](C)O)C(=O)N1)[C@@H](C)O)C(=O)N[C@H](CC(C)C)C(=O)N1CCC[C@H]1C(=O)N1CCC[C@H]1C(=O)N[C@H](C(=O)N[C@@H](CC(N)=O)C(=O)N[C@H](C(=O)NCC(=O)N[C@@H](CO)C(=O)N[C@@H](CC(N)=O)C(=O)N[C@H](C(=O)N[C@@H](Cc1ccc(O)cc1)C(N)=O)[C@@H](C)O)C(C)C)[C@@H](C)O
B5: Peptide 154 (SEQ ID NO: 154) (peptide)
peptide: K([γGlu-C18 diacid])KCNTATCATQRLANFL[Aib]HSSGNFGPILPPTNVGSNTY-NH2
modifications: disulfide 3-8; N-terminus assumed
SMILES: CC[C@H](C)[C@H](NC(=O)[C@@H]1CCCN1C(=O)CNC(=O)[C@H](Cc1ccccc1)NC(=O)[C@H](CC(N)=O)NC(=O)CNC(=O)[C@H](CO)NC(=O)[C@H](CO)NC(=O)[C@H](Cc1c[nH]cn1)NC(=O)C(C)(C)NC(=O)[C@H](CC(C)C)NC(=O)[C@H](Cc1ccccc1)NC(=O)[C@H](CC(N)=O)NC(=O)[C@H](C)NC(=O)[C@H](CC(C)C)NC(=O)[C@H](CCCNC(=N)N)NC(=O)[C@H](CCC(N)=O)NC(=O)[C@@H](NC(=O)[C@H](C)NC(=O)[C@@H]1CSSC[C@H](NC(=O)[C@H](CCCCN)NC(=O)[C@@H](N)CCCCNC(=O)CC[C@H](NC(=O)CCCCCCCCCCCCCCCCC(=O)O)C(=O)O)C(=O)N[C@@H](CC(N)=O)C(=O)N[C@@H]([C@@H](C)O)C(=O)N[C@@H](C)C(=O)N[C@@H]([C@@H](C)O)C(=O)N1)[C@@H](C)O)C(=O)N[C@@H](CC(C)C)C(=O)N1CCC[C@H]1C(=O)N1CCC[C@H]1C(=O)N[C@H](C(=O)N[C@@H](CC(N)=O)C(=O)N[C@H](C(=O)NCC(=O)N[C@@H](CO)C(=O)N[C@@H](CC(N)=O)C(=O)N[C@H](C(=O)N[C@@H](Cc1ccc(O)cc1)C(N)=O)[C@@H](C)O)C(C)C)[C@@H](C)O
B6: Peptide 155 (SEQ ID NO: 155) (peptide)
peptide: K([γGlu-C18 diacid])CNTATCATQRLANFL[Aib]HSSNNFGPILPPTRVGSNTY-NH2
modifications: disulfide 2-7; N-terminus assumed
SMILES: CC[C@H](C)[C@H](NC(=O)[C@@H]1CCCN1C(=O)CNC(=O)[C@H](Cc1ccccc1)NC(=O)[C@H](CC(N)=O)NC(=O)[C@H](CC(N)=O)NC(=O)[C@H](CO)NC(=O)[C@H](CO)NC(=O)[C@H](Cc1c[nH]cn1)NC(=O)C(C)(C)NC(=O)[C@H](CC(C)C)NC(=O)[C@H](Cc1ccccc1)NC(=O)[C@H](CC(N)=O)NC(=O)[C@H](C)NC(=O)[C@H](CC(C)C)NC(=O)[C@H](CCCNC(=N)N)NC(=O)[C@H](CCC(N)=O)NC(=O)[C@@H](NC(=O)[C@H](C)NC(=O)[C@@H]1CSSC[C@H](NC(=O)[C@@H](N)CCCCNC(=O)CC[C@H](NC(=O)CCCCCCCCCCCCCCCCC(=O)O)C(=O)O)C(=O)N[C@@H](CC(N)=O)C(=O)N[C@@H]([C@@H](C)O)C(=O)N[C@@H](C)C(=O)N[C@@H]([C@@H](C)O)C(=O)N1)[C@@H](C)O)C(=O)N[C@@H](CC(C)C)C(=O)N1CCC[C@H]1C(=O)N1CCC[C@H]1C(=O)N[C@H](C(=O)N[C@@H](CCCNC(=N)N)C(=O)N[C@H](C(=O)NCC(=O)N[C@@H](CO)C(=O)N[C@@H](CC(N)=O)C(=O)N[C@H](C(=O)N[C@@H](Cc1ccc(O)cc1)C(N)=O)[C@@H](C)O)C(C)C)[C@@H](C)O

Assays:
[1] = molecular target: T1, human amylin receptor (calcitonin …); assay: cell-based or functional assay
[2] = molecular target: T2, human calcitonin receptor; assay: cell-based or functional assay

| Binder | EC50 (cAMP production) [1] | Ratio (EC50 hCTR / EC50 hAMYR3) [1] | EC50 (cAMP production) [2] |
| --- | --- | --- | --- |
| B1 | 0.221 nM | 9 | 2.02 nM |
| B2 | 0.191 nM | 3.8 | 0.728 nM |
| B3 | 0.179 nM | 23.4 | 4.18 nM |
| B4 | 0.061 nM | 14.7 | 0.898 nM |
| B5 | 0.574 nM | 2.7 | 1.54 nM |
| B6 | 0.329 nM | 11.9 | 3.93 nM |
